According to patent US20090111753A1, “Nogo-A Polypeptide Fragments, Variant Nogo Receptor-1 Polypeptides, and Uses Thereof” (Yale University, priority 2004, published 2009):

B3: mouse NgR3 expressed on COS-7 cells (receptor, UniProt Q8K0S5 25-424, looked up)
chain: CPRDCVCYPAPMTVSCQAHNFAAIPEGIPEDSERIFLQNNRITFLQQGHFSPAMVTLWIYSNNITFIAPNTFEGFVHLEELDLGDNRQLRTLAPETFQGLVKLHALYLYKCGLSALPAGIFGGLHSLQYLYLQDNHIEYLQDDIFVDLVNLSHLFLHGNKLWSLGQGIFRGLVNLDRLLLHENQLQWVHHKAFHDLHRLTTLFLFNNSLTELQGDCLAPLVALEFLRLNGNAWDCGCRARSLWEWLRRFRGSSSAVPCATPELRQGQDLKLLRVEDFRNCTGPVSPHQIKSHTLTTSDRAARKEHHPSHGASRDKGHPHGHPPGSRSGYKKAGKNCTSHRNRNQISKVSSGKELTELQDYAPDYQHKFSFDIMPTARPKRKGKCARRTPIRAPSGVQQAS
notes: whole, on cells; tagged (anti-Myc or anti-His detection); tag not specified

Tests used:
[1] = target: B3; assay: AP fusion on COS-7 cells expressing mouse NgR3
Method: (§1) FIG. 3B. […] Conditioned media from transfected HEK293T cells containing 20 nM of indicated AP fusion protein were applied to COS-7 cells expressing mouse NgR1, human NgR2 or mouse NgR3 and bound AP was stained. Surface expression of NgR5 was detected using anti-Myc or anti-His antibodies. AP-AmNgA: AP fusion protein of Amino-Nogo fragment A. AP-AmNgB: AP fusion protein of Amino-Nogo fragment B.

human NgR2 = target: T1, human NgR2 (Homo sapiens, UniProt Q86UN3); details: expressed on the surface of COS-7 cells; Barton et al. 2003; cited from earlier work
T1 construct: expressed in transfected cells; host or cells: COS-7
T1 sequence (Q86UN3 47-390): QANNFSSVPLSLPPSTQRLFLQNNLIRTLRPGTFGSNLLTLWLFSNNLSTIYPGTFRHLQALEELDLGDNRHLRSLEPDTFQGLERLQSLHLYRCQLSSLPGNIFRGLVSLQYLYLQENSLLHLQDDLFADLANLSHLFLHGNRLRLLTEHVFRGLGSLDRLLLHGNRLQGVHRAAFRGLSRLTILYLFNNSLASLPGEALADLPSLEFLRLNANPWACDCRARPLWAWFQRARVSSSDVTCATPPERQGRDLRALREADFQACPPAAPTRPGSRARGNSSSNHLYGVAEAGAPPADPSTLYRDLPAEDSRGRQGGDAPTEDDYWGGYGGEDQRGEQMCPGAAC

mouse NgR3 = target: T2, mouse NgR3 (Mus musculus, UniProt Q8K0S5); details: expressed on the surface of COS-7 cells; Barton et al. 2003; cited from earlier work
T2 construct: expressed in transfected cells; host or cells: COS-7
T2 sequence (Q8K0S5 25-424): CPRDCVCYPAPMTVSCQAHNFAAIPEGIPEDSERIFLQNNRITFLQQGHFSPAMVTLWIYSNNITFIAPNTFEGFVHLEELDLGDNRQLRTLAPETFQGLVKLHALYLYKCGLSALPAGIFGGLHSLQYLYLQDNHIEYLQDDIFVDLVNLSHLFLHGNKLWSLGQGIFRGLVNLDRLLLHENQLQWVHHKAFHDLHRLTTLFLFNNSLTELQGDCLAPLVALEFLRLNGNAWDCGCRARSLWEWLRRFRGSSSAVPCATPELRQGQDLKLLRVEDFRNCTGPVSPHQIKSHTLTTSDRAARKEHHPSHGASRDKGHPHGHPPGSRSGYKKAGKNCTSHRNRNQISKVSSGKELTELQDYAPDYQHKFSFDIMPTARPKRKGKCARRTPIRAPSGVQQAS

[2] = target: T3, AP-fused Amino-Nogo fragment A (a.a. 181-864) (human, UniProt Q9NQC3 181-864); assay: AP fusion on COS-7 cells expressing mouse NgR3
T3 construct: AP put first by the name; also called AmNg A; AP-AmNgA; not shown: alkaline phosphatase (AP), vector pcAP6
T3 sequence: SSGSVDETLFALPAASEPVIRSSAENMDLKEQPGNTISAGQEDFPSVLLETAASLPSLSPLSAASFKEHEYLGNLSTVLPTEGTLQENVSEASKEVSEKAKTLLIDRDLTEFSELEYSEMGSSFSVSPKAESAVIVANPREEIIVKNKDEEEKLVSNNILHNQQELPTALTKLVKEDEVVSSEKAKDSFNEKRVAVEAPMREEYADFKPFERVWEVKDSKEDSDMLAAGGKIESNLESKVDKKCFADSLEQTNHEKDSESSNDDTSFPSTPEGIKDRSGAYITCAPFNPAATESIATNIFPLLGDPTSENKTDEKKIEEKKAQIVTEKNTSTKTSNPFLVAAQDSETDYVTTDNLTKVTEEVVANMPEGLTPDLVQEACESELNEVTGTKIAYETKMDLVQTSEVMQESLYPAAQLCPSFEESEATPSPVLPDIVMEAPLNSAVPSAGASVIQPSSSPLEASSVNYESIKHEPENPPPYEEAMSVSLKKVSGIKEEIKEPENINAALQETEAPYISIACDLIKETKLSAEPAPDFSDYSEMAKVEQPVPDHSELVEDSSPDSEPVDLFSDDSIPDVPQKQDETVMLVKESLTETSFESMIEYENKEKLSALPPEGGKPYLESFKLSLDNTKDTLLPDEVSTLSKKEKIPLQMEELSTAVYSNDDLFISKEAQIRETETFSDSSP
Method: as §1

B1: AP-fused Amino-Nogo fragment B (a.a. 622-1018) (ligand)
chain: SAVPSAGASVIQPSSSPLEASSVNYESIKHEPENPPPYEEAMSVSLKKVSGIKEEIKEPENINAALQETEAPYISIACDLIKETKLSAEPAPDFSDYSEMAKVEQPVPDHSELVEDSSPDSEPVDLFSDDSIPDVPQKQDETVMLVKESLTETSFESMIEYENKEKLSALPPEGGKPYLESFKLSLDNTKDTLLPDEVSTLSKKEKIPLQMEELSTAVYSNDDLFISKEAQIRETETFSDSSPIEIIDEFPTLISSKTDSFSKLAREYTDLEVSHKSEIANAPDGAGSLPCTELPHDLSLKNIQPKVEEKISFSDDFSKNGSATSKVLLLPPDVSALATQAEIESIVKPKVLVKEAEKKLPSDTEKEDRSPSAIFSAELSKTSVVDLLYWRDIKKTG
notes: also called AmNg B; AP-AmNgB; not shown: alkaline phosphatase (AP), vector pcAP6
binding result [1]: no binding (tested: 20 nM)

B2: AP-Nogo-66: AP fusion protein of the Nogo-66 domain (protein)
chain: RIYKGVIQAIQKSDEGHPFRAYLESEVAISEELVQKYSNSALGHVNCTIKELRRLFLVDDLVDSLK
modifications: left off: large carriers
notes: AP fusion protein of the Nogo-66 domain
binding to NgR2 (human NgR2): do not bind | binding to NgR3 (mouse NgR3): do not bind

B3
binding result [2]: no binding (tested: 20 nM)
